Test results from PMC8179448.
Like-named read-outs stand apart in the source and are kept apart here. Each block holds one molecule with its values, some of them ahead of it.

What was measured:
14-3-3ζ [1] = molecular target: 14-3-3ζ (UniProt P63104); experiment: fluorescence polarisation
14-3-3ζ [2] = molecular target: 14-3-3ζ (UniProt P63104); experiment: fluorescence polarisation; remark: listed apart in the source
14-3-3ζ [3] = molecular target: 14-3-3ζ (UniProt P63104); experiment: fluorescence polarisation; remark: listed apart in the source
14-3-3ζ [4] = molecular target: 14-3-3ζ (UniProt P63104); experiment: fluorescence polarisation; remark: listed apart in the source
14-3-3ζ [5] = molecular target: 14-3-3ζ (UniProt P63104); experiment: fluorescence polarisation titration, FAM-labelled peptides; details: for binding against the reference: reference: 240pi
14-3-3ζ [6] = molecular target: 14-3-3ζ (UniProt P63104); experiment: ITC; details: for binding against the reference: reference: 240pi
14-3-3ζ protein, P63104 = molecular target: T1, 14-3-3ζ protein, P63104; experiment: native gel or EMSA + cross-linking + other: MALDI-TOF; details: remark: other sources report otherwise
T1 chain: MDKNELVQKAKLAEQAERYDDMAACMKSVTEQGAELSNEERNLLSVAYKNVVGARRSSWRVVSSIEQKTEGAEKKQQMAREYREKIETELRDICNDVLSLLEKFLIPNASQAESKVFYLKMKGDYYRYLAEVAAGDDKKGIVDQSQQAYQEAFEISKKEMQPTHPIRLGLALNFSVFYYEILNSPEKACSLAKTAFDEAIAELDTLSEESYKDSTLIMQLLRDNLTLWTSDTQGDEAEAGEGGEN

ka,1 (first step of the two-step fit) (14-3-3ζ [1]): 5.75e+07 M⁻¹ s⁻¹
ka,2 (second step of the two-step fit) (14-3-3ζ [1]): 62.2 s⁻¹
kd,1 (first step of the two-step fit) (14-3-3ζ [1]): 35.2 s⁻¹
kd,2 (second step of the two-step fit) (14-3-3ζ [1]): 38.9 s⁻¹
Kd (14-3-3ζ [2]): 400 nM
ka,1 (two-step fit assuming pS218 binds first; rejected by the paper) (14-3-3ζ [2]): 16.7 μM^−1 s^−1
ka,2 (second step of the two-step fit) (14-3-3ζ [2]): 66.2 s⁻¹
ka,2 (two-step fit assuming pS218 binds first; rejected by the paper) (14-3-3ζ [2]): 29.8 s^−1
kd,1 (two-step fit assuming pS218 binds first; rejected by the paper) (14-3-3ζ [2]): 53.8 s^−1
kd,2 (two-step fit assuming pS218 binds first; rejected by the paper) (14-3-3ζ [2]): 8.64 s^−1
koff (14-3-3ζ [2]): 9.69 s⁻¹
koff (14-3-3ζ [3]): 8.42 s⁻¹
Molecule: FAM-labeled Rnd3 C-terminal peptide (207–241) 218_240pi (from UniProt P61587 207-241)

Kd (14-3-3ζ [1]): 1490 nM
koff (14-3-3ζ [1]): 44.2 s⁻¹
kon (14-3-3ζ [1]): 2.96e+07 M⁻¹ s⁻¹
Ka (14-3-3ζ [2]): 290000 M⁻¹
Kd (14-3-3ζ [2]): 3390 nM
koff (14-3-3ζ [2]): 63.9 s⁻¹
Molecule: FAM-labeled Rnd3 C-terminal peptide (207–241) 240pi (from UniProt P61587 207-241)

ka,1 (first step of the two-step fit) (14-3-3ζ [1]): 3.92e+07 M⁻¹ s⁻¹
ka,2 (second step of the two-step fit) (14-3-3ζ [1]): 25.6 s⁻¹
kd,1 (first step of the two-step fit) (14-3-3ζ [1]): 19.9 s⁻¹
kd,2 (second step of the two-step fit) (14-3-3ζ [1]): 54.5 s⁻¹
Ka (14-3-3ζ [2]): 3.13e+06 M⁻¹
Kd (14-3-3ζ [2]): 320 nM
ka,1 (two-step fit assuming pS240 binds first; rejected by the paper) (14-3-3ζ [2]): 31.1 μM^−1 s^−1
ka,2 (two-step fit assuming pS240 binds first; rejected by the paper) (14-3-3ζ [2]): 60.2 s^−1
kd,1 (two-step fit assuming pS240 binds first; rejected by the paper) (14-3-3ζ [2]): 13 s^−1
kd,2 (two-step fit assuming pS240 binds first; rejected by the paper) (14-3-3ζ [2]): 345 s^−1
koff (14-3-3ζ [2]): 10.9 s⁻¹
koff (14-3-3ζ [4]): 8.02 s⁻¹
Molecule: FAM-labeled Rnd3 C-terminal peptide (207–241) 240piFar (from UniProt P61587 207-241)

Ka (14-3-3ζ [2]): 130000 M⁻¹
Molecule: FAM-labeled Rnd3 C-terminal peptide (207–241) no_piFar (from UniProt P61587 207-241)

binding against the reference (14-3-3ζ [5]; sites S210): stronger
binding against the reference (14-3-3ζ [6]; sites S210): stronger
Molecule: Rnd3 207-241 (from UniProt P61587) 210_240pi

binding against the reference (14-3-3ζ [6]; sites S218): stronger
Molecule: Rnd3 207-241 (from UniProt P61587) 218_240pi

other: association constant K (14-3-3ζ [5]; reference: no_piFar, sites S240): stronger; reference 0.13
Molecule: Rnd3 207-241 (from UniProt P61587) 240piFar

binding against the reference (14-3-3ζ [5]; sites S210,S218): stronger
binding against the reference (14-3-3ζ [6]; sites S210,S218): stronger
Molecule: Rnd3 207-241 (from UniProt P61587) all_pi

dH (14-3-3ζ [6]): -8.76 kcal/mol
stoichiometry N (peptide per 14-3-3ζ) (14-3-3ζ [6]): 0.5
Molecule: Rnd3 C-terminal peptide (207–241) 210_240pi (from UniProt P61587 207-241)

dH (14-3-3ζ [6]): -7.35 kcal/mol
stoichiometry N (peptide per 14-3-3ζ) (14-3-3ζ [6]): 0.5
Molecule: Rnd3 C-terminal peptide (207–241) 210_240piFar (from UniProt P61587 207-241)

dH (14-3-3ζ [6]): -6.22 kcal/mol
stoichiometry N (peptide per 14-3-3ζ) (14-3-3ζ [6]): 0.5
Molecule: Rnd3 C-terminal peptide (207–241) 218_240pi (from UniProt P61587 207-241)

dH (14-3-3ζ [6]): -5.58 kcal/mol
stoichiometry N (peptide per 14-3-3ζ) (14-3-3ζ [6]): 0.5
Molecule: Rnd3 C-terminal peptide (207–241) 218_240piFar (from UniProt P61587 207-241)

dH (14-3-3ζ [6]): -3.53 kcal/mol
stoichiometry N (peptide per 14-3-3ζ) (14-3-3ζ [6]): 1
Molecule: Rnd3 C-terminal peptide (207–241) 240pi (from UniProt P61587 207-241)

dH (14-3-3ζ [6]): -3.56 kcal/mol
stoichiometry N (peptide per 14-3-3ζ) (14-3-3ζ [6]): 1
Molecule: Rnd3 C-terminal peptide (207–241) 240piFar (from UniProt P61587 207-241)

dH (14-3-3ζ [6]): -7.15 kcal/mol
stoichiometry N (peptide per 14-3-3ζ) (14-3-3ζ [6]): 0.5
Molecule: Rnd3 C-terminal peptide (207–241) all_pi, triply phosphorylated (from UniProt P61587 207-241)

dH (14-3-3ζ [6]): -6.26 kcal/mol
stoichiometry N (peptide per 14-3-3ζ) (14-3-3ζ [6]): 0.5
Molecule: Rnd3 C-terminal peptide (207–241) all_piFar (from UniProt P61587 207-241)

dH (14-3-3ζ [6]): 0.703 kcal/mol
Molecule: Rnd3 C-terminal peptide (207–241) no_piFar, farnesylated, without phosphate (from UniProt P61587 207-241)

stoichiometry N (14-3-3ζ protein, P63104): 2
B1: 14-3-3ζ protein, P63104 1-245 (natural protein)
chain: MDKNELVQKAKLAEQAERYDDMAACMKSVTEQGAELSNEERNLLSVAYKNVVGARRSSWRVVSSIEQKTEGAEKKQQMAREYREKIETELRDICNDVLSLLEKFLIPNASQAESKVFYLKMKGDYYRYLAEVAAGDDKKGIVDQSQQAYQEAFEISKKEMQPTHPIRLGLALNFSVFYYEILNSPEKACSLAKTAFDEAIAELDTLSEESYKDSTLIMQLLRDNLTLWTSDTQGDEAEAGEGGEN
